The record followed here is patent publication US20090269336A1 (TAIWAN LIPOSOME, published 2009).

In general, Kd refers to the constant that tells how readily two partners part at equilibrium.

The target of experiment [1] is T1, recombinant VEGF3-114 (human, UniProt P15692 209-320).
T1 construct: Expressed in E. coli
T1 sequence: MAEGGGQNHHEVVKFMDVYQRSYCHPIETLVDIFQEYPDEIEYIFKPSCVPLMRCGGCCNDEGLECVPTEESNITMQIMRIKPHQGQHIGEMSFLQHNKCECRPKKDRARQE
Kind of experiment: competitive ELISA: VC300 mAb equilibrated with soluble VEGF3-114, then added to wells coated with VEGF3-114. On the procedure: The VC300 mAb was purified from mice ascites by ammonium sulfate precipitation and CM Sepharsoe chromatography (GE Healthcare, Piscataway, N.J.). The purified VC300 mAb was analyzed by 7.5% SDS-PAGE and the protein concentration was quantitated by the absorbance at 280 nm. Isotype determination of VC300 mAb was carried out by a monoclonal antibody isotyping kit I obtained from PIERCE (Rockford, Ill., USA). The dissociation constant (Kd) of antigen-antibody interaction was determined by competitive ELISA [Lin et al., (1997) Anal. Biochem., 254: 9-17]. In brief, the antigen, VEGF₃₋₁₁₄, at various concentrations was incubated with the antibody, VC300 mAb at 4° C. for overnight to reach equilibrium. The mixtures were transferred to the wells coated with 3 μg/ml of VEGF₃₋₁₁₄ and incubated at room temperature for 1 h. […] Absorbance at 450 nm was measured and the Kd value was calculated as described previously.

Experiment [2] concerns the target T1, recombinant VEGF3-114. Kind of experiment: cell-based or functional assay.
For a further experiment, the target named is T2, VEGF3-33 (human).
T2 construct: Truncated VEGF fragment expressed in E. coli as a fusion protein detected by anti-penta-His; Tested denatured in cell lysate by Western blot
T2 chain: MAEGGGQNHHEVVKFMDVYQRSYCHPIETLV
Nature of the experiment: Western blot of E. coli lysates. On the procedure: (§1) To elucidate the binding epitope of VC300 mAb, the VEGF₃₋₁₁₄ (SEQ ID NO: 8) and five VEGF fragments, VEGF₃₋₃₃, VEGF₃₋₆₃, VEGF₃₋₉₃, VEGF₃₋₁₀₀, and VEGF₃₋₁₀₇ (see FIG. 1B), were used in the mapping. Nucleotide sequences of all these constructs were verified by DNA sequencing. Expression profiles of fusion proteins were analyzed by 12.5% SDS-PAGE and Western blot analysis with anti-penta-His monoclonal antibody (Qiagen, Valencia, Calif.). The lysates were used in verification of the binding epitope of VC300 mAb.
(§2) E. coli cells containing various truncated fragments of VEGF cDNA in expression vector were induced to express recombinant proteins with 0.4 mM isopropyl-β-D-thiogalactopyranoside (IPTG, Sigma-Aldrich, St. Louis, Mo.) at 37° C. for 3 h and the cells were harvested by centrifugation at 10,000 rpm for 2 min. The cell pellets were suspended and lysed with protein sample buffer, boiled for 10 min and analyzed by a 12.5% SDS-PAGE. For Western blot analysis, the gels were electroblotted onto PVDF membranes and the membranes were blocked with 5% skim milk in phosphate-buffered saline, pH 7.4 containing 0.05% Tween 20 at RT for 1 h, probed with a 1:1000 dilution of anti-penta-His monoclonal antibody or VC300 mAb followed by reaction with HRP-conjugated goat anti-mouse immunoglobulin (Chemicon Int., Temecula, Calif.). The binding reaction was detected by the addition of the diaminobenzidine (Sigma-Aldrich, St. Louis, Mo.) color development reagent, 0.05% diaminobenzidine, 0.005% hydrogen peroxide in 0.1 M Tris-HCl, pH 7.4.
A general note: A western blot detects proteins with antibodies after separation by electrophoresis.

A further experiment concerns the target T3, VEGF3-63 (human, UniProt P15692 209-269).
T3 construct: Truncated VEGF fragment expressed in E. coli as a fusion protein detected by anti-penta-His
T3 sequence: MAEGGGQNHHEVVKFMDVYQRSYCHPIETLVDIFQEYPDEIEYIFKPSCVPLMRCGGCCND
Nature of the experiment: Western blot of E. coli lysates. On the procedure: as §1, §2

A further experiment concerns the target T4, VEGF3-100 (human, UniProt P15692 209-306).
T4 construct: Truncated VEGF fragment expressed in E. coli as a fusion protein detected by anti-penta-His
T4 sequence: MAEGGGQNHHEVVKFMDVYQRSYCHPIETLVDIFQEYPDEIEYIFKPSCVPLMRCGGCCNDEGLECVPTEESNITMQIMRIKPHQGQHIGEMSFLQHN
Nature of the experiment: Western blot of E. coli lysates. On the procedure: as §1, §2

Another experiment has as its target T5, VEGF3-93 (human, UniProt P15692 209-299).
T5 construct: Truncated VEGF fragment expressed in E. coli as a fusion protein detected by anti-penta-His
T5 sequence: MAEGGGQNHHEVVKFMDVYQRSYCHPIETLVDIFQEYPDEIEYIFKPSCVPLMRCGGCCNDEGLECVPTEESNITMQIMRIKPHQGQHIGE
Nature of the experiment: Western blot of E. coli lysates. On the procedure: as §1, §2

B1: VC300 mAb (antibody, IgG1, V domains shown)
VH: EIQLLQSGPELVKPGASVKISCKASGYSFTGYFMNWVMQSHGRTLEWIGRINPYTGETLYNQKFKDKATLTAEISSSTAHMELRSLASDDSAVYFCARRGYAGSGGIYSMDSWGPGTSVTVSS
VL: EIVLTQSPAIMSASLGERVTMTCTASSAVSSSYLHWYHQKPGSSPKLWIFSTSNLASGVPSRFTGSGSGTSYSLTISSVEAEDAATYYCHQYHRSPYTFGAGTKLELN
notes: Mouse hybridoma antibody (BALB/c), purified from mouse ascites; isotype determined to be IgG1; constant regions are not; also called anti-VEGF monoclonal antibody
As for B1, the Kd with recombinant VEGF3-114 [1] is about 2 nM. For the same molecule, in the experiment with recombinant VEGF3-114 [2], the “IC50 of inhibition of VEGF-induced HUVEC proliferation (BrdU incorporation, 13.6 ng/ml VEGF3-114)” value is about 1 nM. Besides, the binding result with VEGF3-33, with VEGF3-63, with VEGF3-100 and with VEGF3-93 was “no binding (tested: 1:1000 dilution of VC300 mAb)” each time.
